This data set deals with the molecule itself. The experiment in a line: SEC-MALS, homodimer. (In general: Size exclusion chromatography separates by hydrodynamic size, large species first.)

B1: PLRV ^NRTD (other)
chain: KHERFIAYVGIPMLTIQARENDDQIILGSLGSQRMKYIEDENQNYTNISSEYYSQSSMQAVPMYYFNVPKGQWSVDISCEGYQPTSSTSDPHRGRSDGMIAYSNADSDYWNVGEADGVKISKLRNDNTYRQGHPELEINSCHFREGQLLERDATISFHVEAPTDGRFFLVGPAIQKTAKYNYTISYGDWTDRDMELGLITVVLDEHLEGTGSANRVRRPPREGHIYMAS
notes: Selenomethionine-labeled protein was used for phasing; also called Potato leafroll virus ^NRTD; WT PLRV ^NRTD
With B1, the binding result is recorded as “binds”.

The record behind these values is patent US20230272413A1 (UNITED STATES OF AMERICA AS REPRESENTED BY THE SECRETARY OF …, published 2023).
